From patent US6579695B1

Key:
[1] = target: N-terminal hexa-histidine-tagged SrfB1 domain of surfactin synthetase, apo-form (His6-SrfB1) (Bacillus subtilis) (UniProt Q04747)
[2] = target: Lactobacillus casei D-Alanyl carrier protein, apo-form (apo-Dcp) (Lactobacillus casei)
[3] = target: Rhizobial NodF (wild-type) (Rhizobial)
[4] = target: E. coli acyl carrier protein, apo-form (apo-ACP) (E. coli) (UniProt P0A6A8)

Substance Bacillus subtilis Sfp (enzyme) has a [14C]-L-valine-holo-SrfB1 covalent complex formed after preincubation of apo-SrfB1 with Sfp and CoASH [1] of 14 fold.

“E. coli holo-acyl carrier protein synthase (ACPS) (enzyme)” gave a radioactivity incorporated into the protein fraction, 36 hour in vitro phosphopantetheinylation [2] of 1.04e+06, a % conversion, in vitro phosphopantetheinylation with [3H]CoA [3] of 47% and a [3H]phosphopantetheine incorporated, in vitro phosphopantetheinylation (ACP-NodF chimera) of 122000 dpm. The Km for apo-ACP, [3H]CoA radioassay [4] was less than 1 µM and the apparent kcat of phosphopantetheinyl transfer, [3H]CoA radioassay [4] was 0.167 s⁻¹.
